# T1: recombinant human CD39 (human, UniProt P49961 38-478)
# T1 chain: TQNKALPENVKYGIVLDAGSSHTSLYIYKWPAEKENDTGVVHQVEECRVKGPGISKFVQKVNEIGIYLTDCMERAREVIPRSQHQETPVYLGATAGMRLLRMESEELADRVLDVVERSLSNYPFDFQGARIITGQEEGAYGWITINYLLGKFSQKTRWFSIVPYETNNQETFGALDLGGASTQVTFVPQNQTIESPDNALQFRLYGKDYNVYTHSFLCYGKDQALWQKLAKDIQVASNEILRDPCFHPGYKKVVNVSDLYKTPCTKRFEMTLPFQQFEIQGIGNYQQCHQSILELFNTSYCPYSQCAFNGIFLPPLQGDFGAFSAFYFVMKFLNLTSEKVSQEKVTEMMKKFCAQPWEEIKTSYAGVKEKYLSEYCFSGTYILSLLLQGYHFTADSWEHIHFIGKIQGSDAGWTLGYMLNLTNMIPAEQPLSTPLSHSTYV
# B1: Clone #10 (antibody, V domains shown)
# VH: QVQLVQSGAEVKKPGSSVKVSCKASGGTFSNYAISWVRQAPGQGLEWMGGIIPIFGTANYAQKFQGRVTITADESTSTAYMELSSLRSEDTAVYYCARPRGDYSGYDAGPIDYWGQGTLVTVSS
# VL: EIVLTQSPATLSLSPGERATLSCRASQSVSSYLAWYQQKPGQAPRLLIYDASNRATGIPARFSGSGSGTDFTLTISSLEPEDFAVYYCQQRFHFPPTFGGGTKVEIK
# B2: Clone #12 (antibody, V domains shown)
# VH: EVQLVESGGGLVQPGGSLRLSCAASGFTFSSYYMQWVRQAPGKGLEWVSYISSSSSTIGYADSVKGRFTISRDNAKNSLYLQMNSLRAEDTAVYYCAKGPRYDSSGYRWRYGMDVWGQGTTVTVSS
# VL: DIQMTQSPSSLSASVGDRVTITCRASQSISSYLNWYQQKPGKAPKLLIYAASSLQSGVPSRFSGSGSGTDFTLTISSLQPEDFATYYCQQLALTPYTFGGGTKVEIK
# B3: Clone #7 (antibody, V domains shown)
# VH: QVQLQESGPGLVKPSETLSLTCAVSGYSISSGYYWAWIRQPPGKGLEWIGSIYHSGSTYYNPSLKSRVTISVDTSKNQFSLKLSSVTAADTAVYYCARGAGHRQFAFDIWGQGTMVTVSS
# VL: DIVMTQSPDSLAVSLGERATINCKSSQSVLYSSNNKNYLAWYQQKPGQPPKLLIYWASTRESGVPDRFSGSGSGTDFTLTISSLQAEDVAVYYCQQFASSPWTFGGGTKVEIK
# B4: Clone #8 (antibody, V domains shown)
# VH: QLQLQESGPGLVKPSETLSLTCTVSGGSISSSSYYWGWIRQPPGKGLEWIGSIYYSGSTYYNPSLKSRVTISVDTSKNQFSLKLSSVTAADTAVYYCARGSPTYHDFDLWGRGTLVTVSS
# VL: EIVLTQSPATLSLSPGERATLSCRASQSVSSYLAWYQQKPGQAPRLLIYDASNRATGIPARFSGSGSGTDFTLTISSLEPEDFAVYYCQQRAIWPPTFGGGTKVEIK
# B5: Clone #11 (antibody, V domains shown)
# VH: QVQLVQSGAEVKKPGSSVKVSCKASGGTFSNYAISWVRQAPGQGLEWMGGIIPIFGTANYAQKFQGRVTITADESTSTAYMELSSLRSEDTAVYYCARPRGDYSGYDAGPIDYWGQGTLVTVSS
# VL: EIVMTQSPATLSLSPGERATLSCRASQSVSSYLAWYQQKPGQAPRLLIYDSSNRATGIPARFSGSGSGTDFTLTISSLEPEDFAVYYCQQRYLFPITFGGGTKVEIK
# B6: Clone #9 (antibody, V domains shown)
# VH: QVQLQESGPGLVKPSETLSLTCAVSGYSISSGYYWAWIRQPPGKGLEWIGSIYHSGSTYYNPSLKSRVTISVDTSKNQFSLKLSSVTAADTAVYYCARGAGHRQFAFDIWGQGTMVTVSS
# VL: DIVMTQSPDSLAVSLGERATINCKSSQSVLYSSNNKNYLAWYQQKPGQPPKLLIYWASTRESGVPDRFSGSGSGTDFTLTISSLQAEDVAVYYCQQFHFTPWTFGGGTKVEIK
# B7: Clone #4 (antibody, V domains shown)
# VH: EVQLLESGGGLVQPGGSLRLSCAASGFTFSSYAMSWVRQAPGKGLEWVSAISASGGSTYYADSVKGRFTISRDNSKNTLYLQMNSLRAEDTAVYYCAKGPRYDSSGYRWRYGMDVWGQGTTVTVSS
# VL: DIQMTQSPSSLSASVGDRVTITCRASQSISSYLNWYQQKPGKAPKLLIYAASSLQSGVPSRFSGSGSGTDFTLTISSLQPEDFATYYCQQLALTPYTFGGGTKVEIK
# B8: Clone #19 (antibody, V domains shown)
# VH: EVQLVESGGGLVQPGGSLRLSCAASGFTFRSYWMSWVRQAPGKGLEWVATIKQDGSEKFYVDSVKGRFTISRDNAKNSLYLQMNSLRAEDTAVYYCARDFTRWSHVNWFDPWGQGTLVTVSS
# VL: EIVMTQSPATLSVSPGERATLSCRASQSVSSSLAWYQQKPGQAPRLLIFGASTRATGIPARFSGSGSGTEFTLTISSLQSEDFAVYYCQQYYHHPYTFGGGTKVEIK
# B9: Clone #16 (antibody, V domains shown)
# VH: QVQLVQSGAEVKKPGSSVKVSCKASGGTFSSNAIGWVRQAPGQGLEWMGGIIPAFGTANYAQKFQGRVTITADESTSTAYMELSSLRSEDTAVYYCARDPVRRSPFDIWGQGTMVTVSS
# VL: EIVLTQSPATLSLSPGERATLSCRASQSVSSYLAWYQQKPGQAPRLLIYDSSNRATGIPARFSGSGSGTDFTLTISSLEPEDFAVYYCQQSFLWPRTFGGGTKVEIK
# B10: Clone #2 (antibody, V domains shown)
# VH: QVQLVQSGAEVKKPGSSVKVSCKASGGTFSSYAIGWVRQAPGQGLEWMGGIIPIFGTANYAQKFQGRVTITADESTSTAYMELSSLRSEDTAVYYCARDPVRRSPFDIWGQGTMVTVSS
# VL: EIVLTQSPATLSLSPGERATLSCRASQSVSSYLAWYQQKPGQAPRLLIYDSSNRATGIPARFSGSGSGTDFTLTISSLEPEDFAVYYCQQSFLWPRTFGGGTKVEIK
# B11: Clone #3 (antibody, V domains shown)
# VH: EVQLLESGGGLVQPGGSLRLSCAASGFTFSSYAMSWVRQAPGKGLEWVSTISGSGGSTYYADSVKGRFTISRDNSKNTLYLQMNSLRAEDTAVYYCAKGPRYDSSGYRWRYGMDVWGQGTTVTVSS
# VL: DIQMTQSPSSLSASVGDRVTITCRASQSISSYLNWYQQKPGKAPKLLIYAASSLQSGVPSRFSGSGSGTDFTLTISSLQPEDFATYYCQQLYVDPPWTFGGGTKVEIK
# B12: Clone #6 (antibody, V domains shown)
# VH: EVQLVESGGGLVQPGGSLRLSCAASGFTFSSYGMSWVRQAPGKGLEWVANIKQDGSEKYYVDSVKGRFTISRDNAKNSLYLQMNSLRAEDTAVYYCARDFTRWSHVNWFDPWGQGTLVTVSS
# VL: EIVMTQSPATLSVSPGERATLSCRASQSVSSSLAWYQQKPGQAPRLLIFGASTRATGIPARFSGSGSGTEFTLTISSLQSEDFAVYYCQQYYHHPYTFGGGTKVEIK
# Target: T1, recombinant human CD39
# Experiment: BLI (ForteBio); IgG, monovalent
row,Binder,Kd [nM]
1,B1,37.3
2,B2,1.38
3,B3,94.3
4,B4,28.3
5,B5,14.7
6,B6,124
7,B7,3.65
8,B8,28.3
9,B9,3.81
10,B10,11.6
11,B11,3.25
12,B12,177
